Test results as given in PMC10439073.

Assays:
Assay in all cases: SPR
BAT1706 (human) = target: BAT1706 (human)
EU-bevacizumab (human) = target: EU-bevacizumab (human)
US-bevacizumab (human) = target: US-bevacizumab (human)

For “FcγRIIIa-158F (from UniProt P08637 17-208) (receptor)”, the Kd (BAT1706 (human)) was 769 nM, the Kd (EU-bevacizumab (human)) was 951 nM and the Kd (US-bevacizumab (human)) was 983 nM.
